Assay results from the nanobody polyreactivity screen of Harvey et al. (2022).

Assay: yeast display, Sf9 membrane polyspecificity reagent, FACS + sequencing; frameworks hold sequencing errors
In short: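 Synthetic nanobody libraries on Saccharomyces cerevisiae BJ5465 were galactose-induced for 36–48 hours, stained 1 hour at 4 °C with 10% biotinylated, detergent-solubilized Sf9 membrane reagent and enriched on streptavidin microbeads. FACS then separated cells into low and high (top ~1%) gates by anti-HA (expression) and streptavidin (reagent binding) fluorescence. Genes were colony-PCR amplified, MiSeq 2 × 250 sequenced and CDR-length filtered. A clone's polyreactivity label is that of its gate of origin.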

Row | Sequence | polyreactivity (PSR sort gate)
1 | QVQLVESGGGLVQAGGSLRLSCAASGSIFYTYAMGWYRQAPGKERELVAGISWRGGSTYYADSVKGRYTISRDNAKNTVYLQMNSLNPEDTAVYYCAASYFWDRVPGRGIHDYWGQGTQVTVSS | high polyreactivity
2 | QVQLVESGGGLVQAGGSLRLSCAASGRIFRVNAMGRYRQAPGKERELVAAITRSGGSTYYADSVKGRFTISRDNAKNTVYLQRNSLKPEDTAVYYCNADPRLRQTRDYWGQGTQVTVSS | high polyreactivity
3 | QVQLVESGGGLVQAGGSLRLSCAASGSTFGYYAMGWYRQAPGKERELVAAISVRGGRTYYADSVKGRFTISRDNAKNTVYLQMNSLKPEDTAVYYCATLLPGLGRYGYDYWGHGTQVTVSS | high polyreactivity
4 | QVQLVESGGGLVQAGGSLRLSCAASGNIFSRYAMGWYRQAPGKERELVASISRGGRTNYADSVKGRFTISRDNAKNTVYLQMNSLKPEDTAVYYCAKGGKGYWHPTGPYPFNYWGQGTQVTVSS | high polyreactivity
5 | QVQLVESGAGLVQAGGSLRLSCAASGFIFWRNTMGWYRQAPGKERELVAVITRGGSTYYADSVKGRFTISRDNAKNTVYLQMNSLKPVDTAVYYCNADNVVEGYDRRSARASYRYYYWGQGTQVTVSS | low polyreactivity
6 | QVQLVESGGGLVQAGGSLRLSCAASGFIFGYYAMGWYIPAPGKERELVAAISGSGGSTYYADSVKGRFTISRDNAKNTVYLQMNSLKPEDTAVYYCAAYGRAPGTSQRYDYRGQGTQVTVSS | high polyreactivity
7 | QVQLVESGGGLVQAGGSLRLSCAASGFIFPVYTMGWYRQAPGKERELVAAITQIGGSTHYADSVTGRFTISRDNAKNTVYLQMNSLKPEDTAVYYCNAVPSYGTEYDYWGQGTQVTVSS | low polyreactivity
8 | QVQLVESGGGLVQAGGSLRLSCAASGSIFIWYSMGWYRQAPGKERELVASITYSAGRTYYADSVKGRFTISRDNAKNTVYLQMNSLKPEDTAVYYCAADSPYVYTLDSYGEGDYWGQGSQVTVSS | low polyreactivity
9 | QVQLVESGGGLVQAGGSLGLSCAASGSTFAGNTMGWYRQAPGKERELVATITRGDSTNYADSVKGRFTISRDNAKNTVYLQMNSLIPEDTAVYYCAAVGRRRTTVGRYVRMDYWGQGTQVTVSS | low polyreactivity
10 | QVQLVESGGGLVQAGGSLRLSCAASGINFGYYTMGWYRQAPGKDREFVAAITANGGRTYYADSVKGRFTLSRDNAKNTVYLKMNSLKPEDTAVYYCNARTYTYRGSFDYWVQGTQVTVSS | high polyreactivity
11 | QVQLVESGGGLVQAGGSLRLSCAASGFTFSFYAIGLYRQATVKEREVVAAISWSGGSTYYADSVKGRFTISRDNAKNTVYLQMNSLKPEDTAVYFCAAKLLYGGRNGYWGQGTQVTVSS | high polyreactivity
12 | QVQLVESGGGLVQAGGSLRLSCAASGSTFLTNDMGWYRQAHGKERELVAVITDGDTTYADSVKGRFTISRDNAKNTVYLQMNSLKPEDTAVYYCAADENYWSAGYDYWGQGTQVTVSS | low polyreactivity
13 | QVQHVESGGGLVQAGGSLRLSCAASGSTFDYNAMGWYRQAPGKERELVAAISFIGGATDYADCVKGRFTISRDNAKNTVYLLMNSLKPEDSGVYYCAADTTSVKDGTFYSWGQGTQVTVSS | low polyreactivity
14 | QVQLVESGGGLVQAGGSLRFSCAASGSIFRLYAMGWYRLAPGKDRELVATLTSGGNTYADSVKGRFTISRENAKNTVYLQMNSLKPEDTAVYYCHAGQYGYYYKGYDYWGQGTQVTVSS | high polyreactivity
15 | QVQLVESGGGLVQAGGSLRLSCAASGFTFGANVMGWYRQAPGKERELVAAITSSGGSTYYADSVKGRFTISRDKAKNTVYLQMYSLKPEDTAVYYCNRRRGAYYGYYWGQGTQVTVSS | high polyreactivity
16 | QVHLVESGGGLVQAGGSLRVSCAASGSIFPDNAMGWYTQAPGKERELVAAITFSGGRTYYADSVKGRFTISRDNAKNTVYLQMNSQKPEDTAVYYCATAKGVKLYRYPDYSGYYPYDYWGQGTQVTVSS | high polyreactivity
17 | QVQLVESGGGLVQAGGSLRLSCAASGRIFHGNAMGWYRQAPGKERELVAAITSGGRTFYADSVKGRFTISRDNAKNTVYLQMNSLKPEDTAVYYCNAPSIAGYAEYNSHDYWGQGTQVTVSS | high polyreactivity
18 | QVQLVESGGGLVQAGGSLRLSCAASGSTFSRYTMGWYRQAPGKEWELVAAISFRASSTYYADSVKGRFTISRDNAKNTVYLQMNSLKPEDTAVYYCAARNVFRYRWPIEYDYWGQGTQVTVSS | low polyreactivity
19 | QVQLVESGVGLVQAGGSLRLSCAASGITFTGYAMGWYRQAPGKERELVAVISETGGSTYADSVKGRFTISRDNAKNTVYLQMNSLKPEDTAVYYCATRLWWPYSTAWAKMDYWGQGTQVTVSS | low polyreactivity
20 | QVQLVESGGGLVQAGGSLRLSCAASGSTFDANTMGWYRQAPGKERELVAAISSNGGRTYYADSVKGRFTISRDNAKNTVYLQMNSLKPEDTAVYYCAATSYYRYRETYDYWGQGTQVTVSS | high polyreactivity
21 | QVQLVESGGGLVQAGGSLRLSCAASGLTFVRYAMGWYRQAPGKERELVAVISYSGARTYYADSVKGRFTISRDNAKNTVYLQMNSLKPEDTAVYYCAARQYTTGKYDSWGQGTQVTVSS | high polyreactivity
22 | QVQLVESGGGLVQAGGSLRLSCAASGFIFYYYAMGWYRPAPGKERELVAAISRTGGRTYYADSVKWRFTISRDNAKKTVYLQMNSLKPEDTAVYYCAADQGNRFDYWGQGTQVTVSS | high polyreactivity

Row | Sequence | polyreactivity (PSR sort gate)
23 | QVQLVESGGGLVQAGGSLRISCAASGRTFARYAMGWYRQAPGKERELVAAISRSGSTYYADSVKGRFTISRDNAKNTVYLQMNSLKPEDTAVYFCAKDTRFAGSYKYYYWGQGTQVTVSS | high polyreactivity
24 | QVQLVESGGGLVQAGGSLRLSCAASGIYGFYAMGWYRQPPRKQRELVAAISSVTSTYYADSVKGRFTISRDNAKNTVYLQMNSLKPEDTAVYYCNAYLYSGGLSYDYWGQGTQVTVSS | low polyreactivity
25 | QVQLVESGGGLVQAGGSLRLSCAASGSIFAYYVMGWYRQAPGKERELVAAISRSGGRTYYADSVKGRFTISRDNAKNTVYLQMNSLKPEETAVYYCNSELYSRPPGAQDPRLRFDYWGQGTQVTVSS | high polyreactivity
26 | QVQLVESGVGLVQAGGSLRLSCAASGITFSYYAMGWYRQAPGKERELVAAISGSGTSTYYADSVKGRFTISRDNAKNTVYLQMNSLKPEDTAVYYCAAGPPRKPGYYYWGQGTQVTVSS | high polyreactivity
27 | QVQLVESGGGLVQAGGSLRLSCAASGRTFGLYTKAWYIQAPGKERELVAAISSGGITYYADSVKGRFTISRDNAKNTVYLQMNSLKPEDTAVYYCAADFRTTRRYNYRYNYWGQGTQVTVSS | high polyreactivity
28 | QVQLVDSGGGLVQAGGSLRLSCAASGRIFLYNGMGWYRQAPGKERELVAGIITGGNTNYADSVKGRFTISRDNAKNTVYLQMNSLKPEDTAVYYCAAEVIVYGWSPDYDYWGQGTQVTLSS | low polyreactivity
29 | QVQLVESGGGLVQAGGSLRLSCAASGRIFSRYVMGWYRQAPGKERELVAAISWNGGSTYYADSVKGRFRISRDNAKNTVYLQMNSLKPEDTAVYYCAARVRVTGTYYTKYDYWGQGTQVTVSS | high polyreactivity
30 | QVQLVESGGGLVQSGGSLRLSCAASGSILYGYAMGWYRQAPGKERELVAAIRWTGGSTYYADSVKGRFTISRDNAKNTVYLQMNSLKPEDTAVYFCAAEYNLRTYWGDYWGQGTQVTVSS | low polyreactivity
31 | QVQLVESGGGLVQAGGSLRLSSAASGITFKAYAMGWYRHAPGKERELVAAISGSGGATYYADSVEGRFTISRDNEKNTVYLQMISLKPEVTAVYYCAARAVSLTGYRFGYWGQGTQVTVSS | high polyreactivity
32 | QVQLQESGGGLVQAGGDLRLSCAASGNIFRDYIMGWYRQAPGKELEFVAGIDRGANTNYADSVKGRFTISRDNAKNTVYLQMNSLKPEDTAVYYCAVHTAIVPDFIYWGQGTQVTVSS | low polyreactivity
33 | QVQLVESGGVLVQALGSLRLSCAASVITIDNYVMGWYRQAPGKERELVAAISIGGGTYYADSVKGRFTISRDNAKNTVYLQMNSRKPEDSAVYYCKARSDVSYWWGGYWGQGTQVTVSS | low polyreactivity
34 | QVQLVLSGGGLVQAGGSLRLSCAASGNTIIRYAMGWYRQEPGKESELVAAISYSGGRTYYADSVKGRFTISRDNAKNTVYLQMNSLKPEDTAVYYCAARYYRSGYRKKIYYWGQGTQVTVSS | high polyreactivity
35 | QVQLVESGGGLVQAGGSLRLSCAASGNTFTAYVMGWYRQAPGKERELVAGISGRGSSTYYADSVKGRFTISRDNAKNTVYLQMNSLKQEDTAVYYCAAVRTLRTWVYGRYDYWGQGTQVTVSS | high polyreactivity
36 | QVQLVESGGGLVQAGGSLRLSCAASGRIFVVNAMGWYRQAPGKESELVAAITRRGGSTYADSVKGRFTISRDNAKNTLYIQMTSLKPEDTAVYYCNAESDFGIFRYKYDYWGQCTQVTVSS | high polyreactivity
37 | QVQLVDSGGGLVQAGGSLRLSCAASGSIFSVYAMGWYRQAPGKERELVAAISSRGGSTYYADSVKGRFTISRDNAKNTVYLQMNSLKPEDTAVYYCAASRQSQRGYWGQGTQVTVSS | high polyreactivity
38 | QVQLVESGGGLLQAGRSLRLSCAASGSTFRAYTMGWYRQAPGIERELVAAINSGGSTYYADSVKGRFTISRDNAKNTVYLQMNSLKAEDTAVYYCNRRFYRAVKYGYWGQGTQVTVSS | low polyreactivity
39 | QVQLVESGGGLVQAGGSLRLSCAASGITLTVYTMGWYRQAPGKERKLVAAITYGGTSTYYADSVKGRFTISRDNAKNTVYLQMNSLKPEDTAVYYCNVAFGYSYRGRDYWGQGTQVTVSS | high polyreactivity
40 | QVQLVESGGGLVQAGGSLRLSCAASGSIFLTNAMGWYRQAPGKERELVAAIRSGGSTSYADSVKGRFTISRDNAKNTVYLQMNSLKPEDTAVYYCNAESDYRNYKVHPSGIYEYWGQGTQVTVSS | low polyreactivity
41 | QVQLVESGGGLVQAGGILRLSCAASGIIFNTNFMGWYRQAPGKERELVAAISRTNYADSVKGRFTISRDNAKNNVFLEMNSLHPEDTSVYDCIVELQYGRPGGQEFDYWGQGSQVTVSS | low polyreactivity
42 | QVQIVESGGGLVQAGGSLRLSCAASGGTFWANAMGWYRQAPGKERELVAAITSGGSTYADSVKGRFTISRDNAKNTVYLQMNSLKPDDTAVYYCNARRYRYRPYLSGYNYWGQGTQVTVSS | high polyreactivity
43 | QVQLVESGGGLVQAGGSLRLSCAASGRTFRSNAMGWNIQAPGKERELVAAITRGRRTYYADSVKGRFTISRDNAKNTVYLQMNSMKPEDTAVYYCAGVGRYACRLDYWGQGTQVTVSS | high polyreactivity
